Reference: the supplement of paper PMC10065799, “High-throughput profiling of sequence recognition by tyrosine kinases and SH2 domains using bacterial peptide display” (eLife, 2023)

Tests used:
MERTK = MERTK (UniProt Q12866); test: phosphorylation enrichment, bacterial display (enrichment ratio); higher = better substrate or ligand; peptides without Tyr show the background
c-Src = test: as above
AncSZ = test: as above
Jak2 = Jak2 (UniProt O60674); test: as above
FGFR1 = FGFR1 (UniProt P11362); test: as above
Sequence of FGFR1 (P11362 whole entry, looked up): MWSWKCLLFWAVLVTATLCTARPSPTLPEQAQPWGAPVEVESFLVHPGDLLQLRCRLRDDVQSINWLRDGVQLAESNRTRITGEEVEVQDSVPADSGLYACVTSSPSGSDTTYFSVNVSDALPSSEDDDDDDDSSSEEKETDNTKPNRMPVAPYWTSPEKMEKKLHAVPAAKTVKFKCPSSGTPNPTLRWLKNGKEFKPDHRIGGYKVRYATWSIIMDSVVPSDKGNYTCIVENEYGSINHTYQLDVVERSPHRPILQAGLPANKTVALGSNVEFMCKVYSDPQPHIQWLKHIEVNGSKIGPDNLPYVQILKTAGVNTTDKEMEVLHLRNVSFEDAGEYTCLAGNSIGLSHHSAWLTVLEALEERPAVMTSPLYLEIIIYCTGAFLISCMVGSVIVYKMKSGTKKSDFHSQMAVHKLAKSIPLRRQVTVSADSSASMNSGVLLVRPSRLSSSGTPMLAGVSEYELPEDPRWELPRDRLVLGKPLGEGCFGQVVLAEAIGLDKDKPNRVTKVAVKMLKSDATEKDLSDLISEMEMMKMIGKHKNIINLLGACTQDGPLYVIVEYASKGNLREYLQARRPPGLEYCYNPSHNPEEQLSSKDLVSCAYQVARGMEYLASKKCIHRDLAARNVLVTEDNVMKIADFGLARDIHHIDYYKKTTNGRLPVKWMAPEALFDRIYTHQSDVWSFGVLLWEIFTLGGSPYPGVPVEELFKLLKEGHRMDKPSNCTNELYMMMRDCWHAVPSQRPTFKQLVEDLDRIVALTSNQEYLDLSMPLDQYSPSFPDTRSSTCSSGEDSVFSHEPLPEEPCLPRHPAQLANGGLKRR

Fyn = Fyn (UniProt P06241); test: as above
Sequence of Fyn (P06241 whole entry, looked up): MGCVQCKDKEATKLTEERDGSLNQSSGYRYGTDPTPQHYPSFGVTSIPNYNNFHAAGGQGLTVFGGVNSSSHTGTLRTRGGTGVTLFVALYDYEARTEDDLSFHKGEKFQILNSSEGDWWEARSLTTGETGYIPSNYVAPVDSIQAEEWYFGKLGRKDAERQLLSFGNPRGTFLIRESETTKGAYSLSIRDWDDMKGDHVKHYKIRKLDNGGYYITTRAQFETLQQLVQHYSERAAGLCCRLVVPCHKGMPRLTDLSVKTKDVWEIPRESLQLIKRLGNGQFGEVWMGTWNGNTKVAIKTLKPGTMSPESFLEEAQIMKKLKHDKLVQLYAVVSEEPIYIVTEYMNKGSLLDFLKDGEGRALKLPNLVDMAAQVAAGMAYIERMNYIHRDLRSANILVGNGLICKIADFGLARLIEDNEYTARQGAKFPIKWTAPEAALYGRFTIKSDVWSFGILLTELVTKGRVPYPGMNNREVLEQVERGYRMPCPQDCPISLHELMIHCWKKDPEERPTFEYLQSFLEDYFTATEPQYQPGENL

c-Abl (mouse) = test: as above
Fes = Fes (UniProt P07332); test: as above
EPHB2 = EPHB2 (UniProt P29323); test: as above
FGFR3 = FGFR3 (UniProt P22607); test: as above
Sequence of FGFR3 (P22607 whole entry, looked up): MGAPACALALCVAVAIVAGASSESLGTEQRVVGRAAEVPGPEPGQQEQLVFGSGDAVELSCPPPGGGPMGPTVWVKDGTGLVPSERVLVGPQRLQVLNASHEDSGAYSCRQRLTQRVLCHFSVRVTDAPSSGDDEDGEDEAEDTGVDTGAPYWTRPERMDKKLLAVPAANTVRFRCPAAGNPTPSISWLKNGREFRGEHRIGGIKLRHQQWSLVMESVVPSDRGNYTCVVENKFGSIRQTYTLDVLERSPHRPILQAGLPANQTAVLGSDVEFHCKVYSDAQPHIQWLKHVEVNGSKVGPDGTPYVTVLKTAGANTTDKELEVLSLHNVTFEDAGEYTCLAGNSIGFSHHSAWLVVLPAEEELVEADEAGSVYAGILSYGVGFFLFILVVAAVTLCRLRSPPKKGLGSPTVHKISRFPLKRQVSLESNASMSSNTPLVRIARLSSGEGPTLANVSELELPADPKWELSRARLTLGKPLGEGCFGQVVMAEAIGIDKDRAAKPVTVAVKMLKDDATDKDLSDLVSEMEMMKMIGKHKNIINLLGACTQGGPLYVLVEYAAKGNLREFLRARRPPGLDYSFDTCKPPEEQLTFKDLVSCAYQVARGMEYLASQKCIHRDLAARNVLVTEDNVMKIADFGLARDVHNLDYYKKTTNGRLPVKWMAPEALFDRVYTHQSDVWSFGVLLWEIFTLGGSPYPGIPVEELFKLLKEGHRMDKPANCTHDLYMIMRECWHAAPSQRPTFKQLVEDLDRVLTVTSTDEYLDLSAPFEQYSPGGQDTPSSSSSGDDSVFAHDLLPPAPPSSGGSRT

Fer (mouse) = test: as above
Hck = Hck (UniProt P08631); test: as above
Sequence of Hck (P08631 whole entry, looked up): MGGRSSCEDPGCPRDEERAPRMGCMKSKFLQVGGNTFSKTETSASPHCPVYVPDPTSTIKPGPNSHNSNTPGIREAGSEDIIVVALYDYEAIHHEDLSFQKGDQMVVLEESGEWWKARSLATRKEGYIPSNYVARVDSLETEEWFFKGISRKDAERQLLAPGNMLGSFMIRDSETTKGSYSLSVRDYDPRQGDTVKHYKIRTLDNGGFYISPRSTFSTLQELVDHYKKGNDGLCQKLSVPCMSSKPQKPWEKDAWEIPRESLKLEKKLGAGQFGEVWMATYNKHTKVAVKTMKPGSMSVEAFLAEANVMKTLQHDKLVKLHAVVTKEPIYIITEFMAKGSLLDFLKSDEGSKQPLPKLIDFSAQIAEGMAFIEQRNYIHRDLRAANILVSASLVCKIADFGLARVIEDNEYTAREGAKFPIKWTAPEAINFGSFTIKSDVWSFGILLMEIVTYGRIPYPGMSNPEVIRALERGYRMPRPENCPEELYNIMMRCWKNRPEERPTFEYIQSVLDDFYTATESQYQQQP

EPHB1 = EPHB1 (UniProt P54762); test: as above
c-Src SH2 = test: SH2 binding enrichment of the phosphorylated peptide, bacterial display (enrichment ratio); higher = better substrate or ligand; peptides without Tyr show the background
SHP2-C SH2 = test: as above
Grb2 SH2 = Grb2 SH2 (UniProt P62993); test: as above
Sequence of Grb2 SH2 (P62993 whole entry, looked up, the tested form may be a part): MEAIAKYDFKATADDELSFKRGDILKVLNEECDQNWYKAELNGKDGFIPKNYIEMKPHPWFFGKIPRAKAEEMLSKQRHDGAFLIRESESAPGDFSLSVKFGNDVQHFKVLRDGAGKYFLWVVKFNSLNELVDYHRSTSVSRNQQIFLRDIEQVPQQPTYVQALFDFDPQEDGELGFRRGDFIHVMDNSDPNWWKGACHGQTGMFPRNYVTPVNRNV
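Wherever SH2 binding enrichment of the phosphorylated peptide, bacterial display is given: peptide library displayed on the E. coli surface as eCPX fusions, selected cells deep-sequenced, score is each peptide's frequency after selection divided by its frequency in the input.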
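Wherever phosphorylation enrichment, bacterial display is given: 11-residue human phosphosite peptides and single-mutation variants displayed on the E. coli surface, counted by deep sequencing, each peptide's frequency after selection divided by its frequency in the unselected input library; frequency after pTyr selection over input frequency; kinase dosed for 20-30% of maximal phosphorylation in three min.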

Sequence of MERTK (Q12866 whole entry, looked up): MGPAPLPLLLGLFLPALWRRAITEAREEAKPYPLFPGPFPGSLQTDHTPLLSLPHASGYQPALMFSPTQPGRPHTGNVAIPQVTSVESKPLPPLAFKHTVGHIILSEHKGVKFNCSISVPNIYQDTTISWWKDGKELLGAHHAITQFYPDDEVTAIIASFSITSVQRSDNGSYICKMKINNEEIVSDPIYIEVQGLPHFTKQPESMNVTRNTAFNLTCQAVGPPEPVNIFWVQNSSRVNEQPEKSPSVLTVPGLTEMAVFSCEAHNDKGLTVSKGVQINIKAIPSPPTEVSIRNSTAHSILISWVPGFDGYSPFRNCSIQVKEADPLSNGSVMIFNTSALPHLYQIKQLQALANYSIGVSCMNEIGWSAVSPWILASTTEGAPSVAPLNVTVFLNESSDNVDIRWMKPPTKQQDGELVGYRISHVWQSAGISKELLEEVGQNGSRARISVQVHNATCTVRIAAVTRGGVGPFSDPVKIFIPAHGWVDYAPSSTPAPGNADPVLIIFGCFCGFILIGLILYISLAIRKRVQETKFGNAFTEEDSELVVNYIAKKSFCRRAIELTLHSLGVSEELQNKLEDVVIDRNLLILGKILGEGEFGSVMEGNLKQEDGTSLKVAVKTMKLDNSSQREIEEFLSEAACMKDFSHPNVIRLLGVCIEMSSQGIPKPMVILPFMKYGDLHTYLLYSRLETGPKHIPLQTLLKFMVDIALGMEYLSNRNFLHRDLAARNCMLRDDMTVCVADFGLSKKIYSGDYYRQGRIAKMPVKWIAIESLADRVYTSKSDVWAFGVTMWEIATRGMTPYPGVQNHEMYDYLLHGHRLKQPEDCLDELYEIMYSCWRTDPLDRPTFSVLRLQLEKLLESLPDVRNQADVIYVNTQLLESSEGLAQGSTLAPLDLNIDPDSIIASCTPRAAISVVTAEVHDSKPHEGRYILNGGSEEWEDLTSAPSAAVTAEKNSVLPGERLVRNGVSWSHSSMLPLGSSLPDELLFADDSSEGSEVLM
Sequence of Jak2 (O60674 whole entry, looked up): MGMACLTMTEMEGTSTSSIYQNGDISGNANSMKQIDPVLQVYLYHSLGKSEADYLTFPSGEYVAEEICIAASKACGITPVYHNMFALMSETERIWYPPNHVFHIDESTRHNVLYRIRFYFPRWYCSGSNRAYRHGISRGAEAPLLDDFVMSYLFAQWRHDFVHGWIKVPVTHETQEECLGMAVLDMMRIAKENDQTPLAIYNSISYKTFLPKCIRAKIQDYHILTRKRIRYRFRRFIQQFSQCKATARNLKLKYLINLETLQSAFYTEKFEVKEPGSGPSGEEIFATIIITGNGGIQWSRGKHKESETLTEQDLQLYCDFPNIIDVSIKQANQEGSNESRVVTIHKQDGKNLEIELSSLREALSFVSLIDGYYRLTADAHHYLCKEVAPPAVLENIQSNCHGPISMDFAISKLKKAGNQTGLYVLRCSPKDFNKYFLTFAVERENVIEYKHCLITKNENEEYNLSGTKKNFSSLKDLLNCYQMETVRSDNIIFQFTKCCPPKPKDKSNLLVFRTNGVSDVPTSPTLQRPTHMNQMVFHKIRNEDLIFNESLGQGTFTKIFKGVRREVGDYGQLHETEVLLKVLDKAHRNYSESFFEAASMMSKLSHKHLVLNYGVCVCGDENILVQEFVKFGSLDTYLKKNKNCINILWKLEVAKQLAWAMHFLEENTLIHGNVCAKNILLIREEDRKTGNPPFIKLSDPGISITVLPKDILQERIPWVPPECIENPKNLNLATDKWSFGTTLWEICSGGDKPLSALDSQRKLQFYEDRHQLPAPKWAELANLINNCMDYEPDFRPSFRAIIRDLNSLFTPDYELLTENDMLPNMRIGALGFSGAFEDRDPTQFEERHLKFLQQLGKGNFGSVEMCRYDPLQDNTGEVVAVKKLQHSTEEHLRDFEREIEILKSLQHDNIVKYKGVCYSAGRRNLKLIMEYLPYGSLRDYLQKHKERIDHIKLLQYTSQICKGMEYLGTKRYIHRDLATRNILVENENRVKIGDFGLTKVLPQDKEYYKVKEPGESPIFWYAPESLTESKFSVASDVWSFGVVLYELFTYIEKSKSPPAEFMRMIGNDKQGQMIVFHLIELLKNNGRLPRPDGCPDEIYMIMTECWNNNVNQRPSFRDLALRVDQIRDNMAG

Sequence | phosphorylation enrichment (MERTK) | phosphorylation enrichment (c-Src) | phosphorylation enrichment (AncSZ) | phosphorylation enrichment (Jak2) | phosphorylation enrichment (FGFR1) | phosphorylation enrichment (Fyn) | phosphorylation enrichment (c-Abl (mouse)) | phosphorylation enrichment (Fes) | phosphorylation enrichment (EPHB2) | phosphorylation enrichment (FGFR3) | phosphorylation enrichment (Fer (mouse)) | phosphorylation enrichment (Hck) | phosphorylation enrichment (EPHB1) | SH2 binding enrichment (c-Src SH2) | SH2 binding enrichment (SHP2-C SH2) | SH2 binding enrichment (Grb2 SH2)
TSSGGYRRTPS [ABI1_Y333] | 0.467 | 0.419 | 0.499 | 0.473 | 0.386 | 0.433 | 0.486 | 0.499 | 0.532 | 0.428 | 0.473 | 0.409 | 0.355 | 0.66 | 0.56 | 0.826
TSSSSYFDEPV [ARFGAP3_Y356] | 0.421 | 0.47 | 1.1 | 0.98 | 0.486 | 0.478 | 0.841 | 1.01 | 0.576 | 0.749 | 0.506 | 0.5 | 0.549 | 0.569 | 0.827 | 0.762
TTGGFYSFGGG [KRT24_Y120_A115T_YF] | 8.96 | 1.67 | 0.623 | 0.604 | 0.46 | 4.22 | 0.585 | 0.847 | 0.442 | 0.446 | 1.55 | 1.57 | 0.766 | 0.418 | 0.618 | 0.654
TTGLIYIGSHD [AASDH_Y870] | 0.323 | 0.408 | 0.726 | 0.715 | 0.445 | 0.375 | 0.488 | 0.759 | 0.565 | 0.79 | 0.424 | 0.46 | 0.686 | 0.624 | 0.69 | 1.04
TTKAKYKTPIY [PLD2_Y573_T577I] | 0.574 | 0.541 | 0.823 | 0.587 | 0.46 | 0.771 | 0.695 | 0.928 | 0.46 | 0.596 | 0.459 | 0.789 | 0.542 | 0.793 | 0.775 | 0.908
TTKAKYKTPTY [PLD2_Y573] | 0.362 | 0.406 | 0.473 | 0.488 | 0.287 | 0.393 | 0.539 | 0.501 | 0.313 | 0.32 | 0.336 | 0.443 | 0.328 | 0.541 | 0.848 | 0.906
TTKGSYSLFVR [HCK_Y180_S183Y_YF] | 0.45 | 0.419 | 1 | 0.742 | 0.383 | 0.418 | 0.546 | 1.09 | 0.846 | 0.57 | 0.43 | 0.441 | 0.351 | 0.552 | 0.837 | 1.08
TTPGPHRSIFF [MPG_Y71_Y71H_YF] | 0.376 | 0.303 | 0.502 | 0.449 | 0.353 | 0.398 | 0.542 | 0.514 | 0.386 | 0.41 | 0.328 | 0.355 | 0.41 | 0.681 | 1 | 0.895
TTSQLYDAMPI [PDPK1_Y9_V12M] | 9.19 | 3.9 | 0.986 | 0.665 | 0.537 | 6.16 | 0.706 | 0.794 | 6.17 | 0.809 | 12.4 | 8.57 | 8.16 | 0.712 | 0.417 | 0.854
TVDASYFGGRG [ANTXR2_Y380_YF] | 0.438 | 0.413 | 0.569 | 0.677 | 0.372 | 0.403 | 0.519 | 0.567 | 0.337 | 0.394 | 0.312 | 0.425 | 0.333 | 0.474 | 0.513 | 1.01
TVFENYVADIK [RHOA_Y42_E47K] | 0.442 | 0.536 | 0.922 | 0.889 | 0.48 | 0.534 | 0.699 | 0.878 | 0.676 | 0.688 | 0.495 | 0.534 | 0.845 | 0.538 | 0.607 | 0.846
TVINKYQGKLF [HGD_Y249] | 0.398 | 0.449 | 0.514 | 0.545 | 0.473 | 0.414 | 0.513 | 0.596 | 0.436 | 0.401 | 0.372 | 0.447 | 0.336 | 0.504 | 0.811 | 0.838
TVQVAYFTMMM [SPATA17_Y83_YF] | 0.441 | 0.599 | 1.04 | 1.15 | 1.04 | 0.5 | 0.791 | 1.41 | 0.667 | 1.17 | 0.678 | 0.59 | 0.662 | 0.453 | 0.704 | 0.745
VAFLFYKSIGP [ADGRL4_Y302_V300L_YF] | 0.523 | 0.558 | 1.38 | 1.98 | 0.739 | 0.5 | 1.12 | 1.6 | 0.664 | 0.837 | 0.55 | 0.488 | 0.689 | 0.301 | 0.457 | 0.542
VAVVQYSGTGQ [COL6A1_Y878] | 0.412 | 0.451 | 0.517 | 0.576 | 0.487 | 0.357 | 0.592 | 0.71 | 0.463 | 0.564 | 0.387 | 0.438 | 0.479 | 0.451 | 0.413 | 0.767
VCHELYNAIRD [PBRM1_Y54_T56A] | 0.43 | 1.33 | 0.939 | 0.79 | 0.464 | 0.672 | 0.693 | 0.933 | 0.574 | 0.702 | 0.567 | 2.62 | 0.543 | 1.66 | 0.737 | 0.893
VDDEIYYFRKP [PBRM1_Y1289] | 4.89 | 6.81 | 2.94 | 1.35 | 6.49 | 8.84 | 7.44 | 1.39 | 0.84 | 5.81 | 1.29 | 8.76 | 0.871 | 0.521 | 0.57 | 0.994

Sequence | phosphorylation enrichment (MERTK) | phosphorylation enrichment (c-Src) | phosphorylation enrichment (AncSZ) | phosphorylation enrichment (Jak2) | phosphorylation enrichment (FGFR1) | phosphorylation enrichment (Fyn) | phosphorylation enrichment (c-Abl (mouse)) | phosphorylation enrichment (Fes) | phosphorylation enrichment (EPHB2) | phosphorylation enrichment (FGFR3) | phosphorylation enrichment (Fer (mouse)) | phosphorylation enrichment (Hck) | phosphorylation enrichment (EPHB1) | SH2 binding enrichment (c-Src SH2) | SH2 binding enrichment (SHP2-C SH2) | SH2 binding enrichment (Grb2 SH2)
VDDQIYFFRKP [PBRM1_Y1289_E1287Q_YF] | 1.42 | 4.67 | 2.49 | 1.61 | 3.43 | 6.38 | 3.29 | 1.55 | 0.785 | 3.47 | 0.728 | 5.8 | 0.961 | 0.42 | 0.669 | 0.778
VDEERYDIEAK [TNNI3_Y112] | 0.439 | 0.483 | 1.13 | 1.12 | 0.555 | 0.513 | 0.752 | 1.24 | 0.708 | 0.697 | 0.519 | 0.724 | 0.516 | 0.62 | 0.647 | 0.852
VDEVLYEDSST [MTHFS_Y197] | 0.492 | 0.615 | 1.53 | 1.18 | 0.742 | 0.571 | 0.785 | 1.34 | 0.671 | 0.886 | 2.56 | 0.646 | 0.666 | 0.489 | 0.635 | 0.849
VDYQPYRKHKY [TEX37_Y28] | 0.302 | 0.35 | 0.627 | 0.483 | 0.423 | 0.436 | 0.53 | 0.518 | 0.356 | 0.416 | 0.425 | 0.484 | 0.314 | 0.918 | 1.11 | 0.917
VEKGSYSALLA [ABCC2_Y845] | 0.71 | 0.493 | 0.648 | 0.69 | 0.401 | 0.332 | 0.516 | 0.535 | 0.392 | 0.456 | 0.45 | 0.537 | 0.354 | 1.45 | 0.686 | 0.663
VERRVYAEDPF [PCCA_Y401_C398R_YF] | 0.384 | 0.462 | 0.722 | 0.674 | 0.429 | 0.554 | 0.648 | 0.76 | 0.499 | 0.481 | 0.39 | 0.412 | 0.385 | 0.668 | 0.777 | 1
VFAADYFKLLG [ROR2_Y645_YF] | 0.394 | 0.562 | 0.819 | 7.31 | 7.25 | 0.417 | 0.498 | 0.643 | 0.403 | 4.37 | 0.467 | 0.439 | 0.52 | 0.527 | 0.638 | 0.983
VFFGSYSRPFG [NKAP_Y104_YF] | 0.777 | 0.584 | 1.39 | 1.12 | 0.522 | 0.382 | 1.02 | 0.974 | 0.445 | 0.65 | 0.419 | 0.479 | 0.396 | 1.76 | 1.2 | 1.24
VFGVSYDEYRY [CFTR_Y512_I507V] | 0.477 | 1.31 | 1.01 | 0.761 | 0.434 | 0.802 | 0.566 | 0.959 | 0.465 | 0.604 | 0.453 | 0.712 | 0.538 | 1.38 | 0.72 | 0.781
VFPIDYFFPPQ [AR_Y552_L548F_YF] | 0.518 | 0.906 | 4.04 | 2.76 | 12.6 | 0.508 | 1.03 | 1.04 | 1.53 | 10.7 | 0.643 | 0.618 | 1.19 | 0.646 | 1.32 | 1.4
VFSIDYFRVGG [NTRK2_Y706_T704I_YF] | 0.526 | 0.649 | 1.35 | 5.86 | 4.54 | 0.535 | 0.829 | 1.08 | 0.563 | 2.94 | 0.484 | 0.588 | 0.874 | 1.08 | 2.13 | 1.2
VGNPAYRSFSN [IL4R_Y497_A492V] | 0.374 | 0.376 | 0.518 | 0.608 | 0.412 | 0.441 | 0.478 | 0.546 | 0.417 | 0.435 | 0.509 | 0.329 | 0.368 | 0.405 | 0.547 | 0.862
VGTKQYMAPEV [ACVRL1_Y375_R374Q] | 0.469 | 0.598 | 0.678 | 0.738 | 0.458 | 0.432 | 0.674 | 0.754 | 0.653 | 0.51 | 0.42 | 0.429 | 0.466 | 0.485 | 0.572 | 0.832
VHKKGYNKLNQ [ZNF676_Y98_E96K] | 0.384 | 0.488 | 0.408 | 0.569 | 0.494 | 0.403 | 0.645 | 0.66 | 0.374 | 0.516 | 0.439 | 0.43 | 0.48 | 0.962 | 0.885 | 1.08
VHNLDYYKMTT [FGFR3_Y647_K650M] | 0.492 | 0.496 | 1.33 | 5.87 | 12.1 | 0.439 | 0.433 | 0.608 | 0.895 | 8.96 | 0.522 | 0.547 | 1.17 | 1.07 | 0.643 | 0.731
VHVEVYDRPSP | 0.531 | 0.597 | 1.39 | 1.01 | 0.438 | 0.855 | 1.33 | 1.02 | 0.668 | 0.761 | 0.802 | 1.95 | 0.791 | 0.585 | 0.777 | 0.803
